B1: DLC1 (parent)
chain: NDDSADYQHFLQDCVDGLFKEVKE
B2: DCAF4 (parent)
chain: PGIDRPGMLCSFRIPGAWSCAWSL

Variants of: B1
Assay: protein stability index of a GFP-peptide fusion (GPS, HEK-293T) (PSI 1-6); higher = more stable
Settings: c terminus: a fixed tail appended
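Further: lentivirally expressed fusions sorted by FACS into six bins by GFP to DsRed ratio, PSI derived from sequencing read proportions per bin multiplied by bin number.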

Variant | protein stability index
G17V | 2.16
G17S | 2.58
G17T | 2.21
G17C | 1.71
G17A | 3.68
G17R | 2.01
G17F | 2.12
G17H | 2.37
G17L | 1.82
G17M | 2.18
G17P | 4.92
G17D | 4.28
G17I | 2.19
G17Q | 2.44
G17E | 2.41
G17W | 2.43
G17N | 2.39
G17K | 2.73
G17Y | 2.44
E21D | 4.67
E21M | 2.24
E21F | 2.51
E21H | 2.42
E21L | 1.67

Variant | protein stability index
E21A | 2.29
E21S | 3.27
E21P | 3.94
E21W | 2.28
E21V | 1.83
E21G | 3.51
E21I | 3.01
E21Q | 2.74
E21C | 2
E21R | 2.55
E21T | 1.98
E21Y | 2.03
E21N | 3.81
E21K | 2.57
L18G | 5.6
L18Y | 3.71
L18D | 5.73
L18E | 5.3
L18A | 5.02
L18C | 5.13
L18H | 5.37
L18R | 4.58
L18K | 5.3
L18Q | 5.2

Variant | protein stability index
L18S | 5.03
L18M | 4.47
L18T | 4.96
L18F | 3.33
L18P | 4.93
L18I | 3.73
L18N | 5.43
L18V | 4.53
L18W | 4.64
E24W | 1.67
E24C | 2.33
E24S | 1.91
E24Y | 1.66
E24L | 2.36
E24H | 1.88
E24R | 2.01
E24Q | 2.51
E24G | 3.66
E24N | 2.5
E24M | 2.3
E24P | 4.54
E24K | 2.2
E24A | 2.17
E24T | 2.81

Variant | protein stability index
E24I | 2.1
E24V | 2.69
E24D | 2.33
E24F | 2.11
F19E | 4.54
F19Q | 5.08
F19P | 5.17
F19D | 5.61
F19T | 5.45
F19Y | 2.94
F19G | 5.54
F19V | 2.89
F19S | 5.67
F19A | 5.02
F19M | 3.72
F19R | 4.46
F19C | 3.38
F19W | 2.96
F19L | 1.51
F19I | 2.72
F19H | 4.82
F19N | 5.21
F19K | 5.25
V22W | 4.73

Variant | protein stability index
V22L | 3.32
V22R | 5.08
V22M | 4.08
V22K | 5.5
V22E | 5.42
V22D | 5.46
V22Q | 4.37
V22N | 5.27
V22C | 4.3
V22H | 5.31
V22Y | 4.05
V22P | 4.26
V22F | 3.84
V22G | 5.01
V22I | 2.58
V22T | 4.87
V22S | 5.4
V22A | 4.42
K23P | 4.57
K23L | 2.06
K23H | 3.88
K23Q | 2.75
K23T | 1.65
K23E | 3.72

Variant | protein stability index
K23R | 2.57
K23N | 3.37
K23V | 2.05
K23F | 2.83
K23I | 1.9
K23W | 2.66
K23A | 2.56
K23S | 3.09
K23D | 4.98
K23M | 2.01
K23Y | 2.35
K23G | 4.37
K20D | 5.24
K20W | 2.95
K20C | 3.38
K20V | 3.56
K20T | 4
K20A | 3.35
K20S | 4.74
K20H | 3.45
K20M | 2.68
K20Y | 2.88
K20Q | 3.23
K20E | 3.55

Variant | protein stability index
K20F | 2.93
K20P | 4.86
K20R | 2.51
K20L | 2.87
K20N | 3.08
K20I | 3.05
K20G | 3.84
D16R | 4.08
D16M | 2.81
D16S | 3.22
D16W | 1.8
D16P | 4.34
D16Y | 2.21
D16V | 2.99
D16T | 3.28
D16N | 2.81
D16F | 2.34
D16I | 1.49
D16Q | 2.31
D16L | 2.12
D16H | 3.44
D16K | 2.56

Variants of: B2
Assay: as above
Settings: c terminus: a fixed tail appended

Variant | protein stability index
R5Q | 3.37
R5L | 2.46
R5D | 3.46
R5N | 3.74
R5A | 2.47
R5F | 3.57
R5G | 2.74
R5E | 3.11
R5Y | 2.76
R5K | 2.04
R5I | 1.87
R5M | 3.37
R5C | 2.89
R5P | 2.75
R5V | 1.94
D4F | 2.74
D4Q | 2.42
D4C | 2.61
D4N | 2.05
D4Y | 2.27
D4W | 2.65
D4I | 3.29
D4M | 1.91
D4E | 2.38

Variant | protein stability index
D4T | 2.56
D4P | 2.56
S11D | 2.44
S11Q | 2.82
S11Y | 3.16
S11L | 2.81
S11F | 3.19
S11M | 2.95
S11G | 3.07
S11E | 2.68
S11H | 3.42
S11K | 2.81
S11P | 3.14
S11T | 1.56
S11C | 2.19
S11R | 3.98
S11V | 1.85
S11A | 3.01
G2V | 1.85
G2F | 1.6
G2I | 2.26
G2Q | 2.39
G2H | 3.15
G2T | 2.59

Variant | protein stability index
G2K | 2.19
G2R | 3.78
G2Y | 3
G2D | 3.96
G2W | 1.83
G2S | 2.55
G2L | 2.54
G2P | 1.94
G2C | 3.1
G2M | 3.72
P1N | 3.47
P1A | 1.93
P1R | 2.46
P1M | 3.39
P1D | 2.31
P1H | 2.96
P1Y | 3.48
P1L | 3.17
P1K | 1.96
P1S | 3.17
P1G | 3.67
P1Q | 3.03
P1C | 2.36
P1T | 3.59

Variant | protein stability index
G7K | 2.7
G7D | 2.11
G7I | 3.13
G7Y | 2.28
G7W | 2.23
G7A | 2.7
G7T | 3.46
G7R | 2.05
G7S | 3.09
G7N | 2.67
G7H | 2.09
G7Q | 2.63
G7F | 4.52
G7V | 2.84
G7P | 2.83
G7M | 2.31
P6H | 2.66
P6G | 3.28
P6S | 2.83
P6Y | 3.44
P6V | 2.93
P6M | 4.05
P6C | 2.65
P6K | 2.83

Variant | protein stability index
P6Q | 3.62
P6F | 3.41
P6A | 3.48
P6R | 3.89
P6N | 2.76
P6T | 2.65
P6E | 1.44
I3F | 2.26
I3P | 2.33
I3L | 3.31
I3H | 2.39
I3D | 1.96
I3N | 4.44
I3T | 2.93
I3K | 2.3
I3E | 4.15
I3G | 1.51
I3M | 2.5
I3W | 3.75
I3Q | 3.25
I3S | 2.97
I3V | 2.56
I3A | 2.91
L9I | 3.09

Variant | protein stability index
L9Q | 1.76
L9R | 3.61
L9P | 2.5
L9E | 2.62
L9W | 2.82
L9F | 2.7
L9D | 3.26
L9S | 2.32
L9T | 1.7
L9N | 2.9
L9G | 1.77
L9V | 2.85
L9H | 2.92
L9K | 3.08
L9Y | 2.31
C10W | 3.64
C10P | 2.2
C10S | 2.9
C10D | 2.17
C10F | 3.57
C10Q | 1.58
C10M | 3.1
C10E | 2.82
C10G | 2.12

Variant | protein stability index
C10N | 2.65
C10I | 3.54
C10H | 3.98
C10K | 2.77
C10A | 1.68
C10Y | 3.23
F12E | 2.5
F12G | 2.29
F12H | 2.68
F12C | 3.41
F12D | 2.19
M8Y | 1.56
M8I | 3
M8S | 3.62
M8G | 3.31
M8L | 3.01
M8C | 2.66
M8K | 2.34
M8R | 1.99
M8A | 2.31
M8E | 2.42
M8T | 3.54
M8H | 2.83
M8N | 2.11
